Reference: patent publication US20210347833A1 (WISYS TECHNOLOGY FOUNDATION, published 2021)

Molecular target: the molecule itself
Test: size-exclusion chromatography, titration of apoSFP with biliverdin; self-association of subunits (apo protein is monomeric, no dimer fraction seen)

B1: Recombinant wild-type Sandercyanin fluorescent protein (SFP) lacking the signal peptide (other)
chain: MFIKPGRCPKPAVQEDFDAARYLGVWYDIQRLPNKFQKGECATATYSLSPGVGFSVFNRERLANGTIKSVIGSAIAEDPCEPAKLQFFHENAAPVPYWVLSTDYDNYALVYSCINLGASHAAYASIVSRQPTLPEETIKKLQGTMSSFGVGVDTLLTTNQDAAYCSAMNQ
notes: the apo protein is a monomer in solution; also called wtSFP; wild-type SFP
B1: binds.
